Literature values in PMC3039444.

Target: Ube2g2 (Homo sapiens) (UniProt P60604)
UniProt P60604, sequence (P60604 2-165): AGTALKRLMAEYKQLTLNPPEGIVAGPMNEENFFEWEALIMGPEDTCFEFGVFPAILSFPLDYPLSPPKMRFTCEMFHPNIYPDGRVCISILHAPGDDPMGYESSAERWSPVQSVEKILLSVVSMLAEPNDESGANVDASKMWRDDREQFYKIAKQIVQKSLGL

gp78 G2BR (from UniProt Q9UKV5)
Kd: 21 nM
